Biological target: the molecule itself
Assay: SDS-PAGE and western blot with and without DTT; flight-muscle tissue homogenates of wild-type flies, mitochondrial fraction; monomer band and upper band (Dosmit*); analysed in the presence and absence of DTT

B1: Dosmit (downsizing mitochondria), endogenous in fly flight muscle (natural protein, UniProt Q9VAM6 1-133, looked up)
chain: MEPISHLVKSSLPNYLSSLPVPDSIGGWFKLSFKDWLALIPPTVVVAGLGYTAYLAYCPAARASCAAKNSGRCNNHIRKNEPKVVDMIDVEDIAEKAAFCRCWKTKNWPYCDGSHGEHNKQTGDNVGPIVIKK
notes: endogenous protein of flight muscle; Seen as monomer and dimer (Dosmit*) bands on western blots; the dimer band is reduced to the monomer by DTT; also called Dosmit* (dimer form); CG1458; source: endogenous, flight-muscle tissue homogenate of wild-type flies (mitochondrial fraction)
stoichiometry N: 2

Source: PMC7244744, “Vesicular transport mediates the uptake of cytoplasmic proteins into mitochondria in Drosophila melanogaster” (Nature Communications, 2020)
